Test [1] has as its target T1, His-tagged 6FNIII-domain of Neogenin (Gallus gallus, UniProt Q90610 429-1036).
T1 construct: also called His-6FNIII; His-FNIII; not shown: His tag
T1 sequence: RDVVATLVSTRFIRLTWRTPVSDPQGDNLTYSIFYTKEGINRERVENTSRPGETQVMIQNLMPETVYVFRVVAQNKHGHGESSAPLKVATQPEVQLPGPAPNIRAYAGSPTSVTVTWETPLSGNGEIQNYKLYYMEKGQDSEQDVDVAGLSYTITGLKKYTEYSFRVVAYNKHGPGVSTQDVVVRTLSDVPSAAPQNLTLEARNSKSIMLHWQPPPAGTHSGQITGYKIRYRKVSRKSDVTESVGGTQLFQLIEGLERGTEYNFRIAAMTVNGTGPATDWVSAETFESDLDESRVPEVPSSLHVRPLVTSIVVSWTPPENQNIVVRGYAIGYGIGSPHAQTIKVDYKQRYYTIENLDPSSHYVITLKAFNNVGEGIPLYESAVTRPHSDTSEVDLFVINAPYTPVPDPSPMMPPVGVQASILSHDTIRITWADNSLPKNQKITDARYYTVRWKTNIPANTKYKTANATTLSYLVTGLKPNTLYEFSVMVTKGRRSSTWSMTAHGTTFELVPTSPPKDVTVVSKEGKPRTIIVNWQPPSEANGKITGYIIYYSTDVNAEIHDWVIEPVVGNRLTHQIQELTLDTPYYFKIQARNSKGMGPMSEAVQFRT
The test can be described thus: complementary plate assay, RGMa peptides fused with AP (FIG. 9). Here is the method:
(§1) (A) Different RGMa-AP proteins were incubated on wells coated with the 4Ig 6FNIII or BSA. […] Data were average±SEM (n=3 independent experiments), *p<0.005. (B) Quantification of a binding assay where 4Ig-AP and 6FNIII-AP proteins were assayed on wells coated with proteins from different RGMa regions. […] C-RGMa proteins and full length RGMa only bound 6FNIII. Data were average±SEM (n=3 independent experiments), *p<0.005. […] Quantification of a binding assay where N-RGMa-AP was assayed on wells coated with proteins DCC-4Ig and Neogenin-4Ig. In this experiment Neogenin-4Ig but not DCC-4Ig interacted with N-Raft-AP. Data were average±SEM (n=4 independent experiments), *p<0.005. (D) Cis-interaction between the 4Ig domain of Neogenin and N-Raft is required for localization of Neogenin in lipid rafts. HEK-293 cells were transfected with Neogenin and RGMa constructs. BMP2 (100 nM) was added to the medium 1 hour before cells were collected. Western blotting was performed following lipid raft fractionation. Flotillin was used as a marker for lipid raft fractions, whereas the transferrin receptor (TfR) was used as a marker for heavy membrane-fractions. Every experiment was repeated twice. […] In the first set of experiments, cells were only transfected with Neogenin. […]

Test [2] addresses T2, His-tagged 4Ig-domain of Neogenin (Gallus gallus, UniProt Q90610 1-383).
T2 construct: Secreted from transfected cells, purified on Ni-NTA; also called His-4Ig; Neogenin-4Ig; not shown: 6-His tag at the N-terminus; myc and 6-His tags of the pSectag 2B vector at the C-terminus
T2 sequence: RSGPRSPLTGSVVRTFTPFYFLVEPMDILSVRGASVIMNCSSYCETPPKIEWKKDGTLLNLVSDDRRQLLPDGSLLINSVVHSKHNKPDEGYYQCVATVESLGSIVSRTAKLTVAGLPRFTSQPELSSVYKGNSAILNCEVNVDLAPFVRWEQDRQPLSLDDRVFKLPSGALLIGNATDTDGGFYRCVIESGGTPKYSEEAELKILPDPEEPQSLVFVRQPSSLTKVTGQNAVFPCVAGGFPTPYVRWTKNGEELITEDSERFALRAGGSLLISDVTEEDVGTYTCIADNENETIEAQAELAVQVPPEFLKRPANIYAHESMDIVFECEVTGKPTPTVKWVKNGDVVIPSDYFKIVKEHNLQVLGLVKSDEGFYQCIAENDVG
The test can be described thus: complementary plate assay, RGMa peptides fused with AP on coated Neogenin domains (FIG. 9). Here is the method:
as §1

In test [3] the target is T1, His-tagged 6FNIII-domain of Neogenin. The description is as above. Here is the method: as §1

No end group written: not given here.

Data on two molecules can be found in US20160271230A1 (UNIVERSITY HEALTH NETWORK, published 2016).

B1: N-inh fused with alkaline phosphatase (peptide)
chain: GDLAYHSAVHGIDDLMVQHNCSKDGPTSQPRLRTLPP
modifications: also: alkaline phosphatase tag, sequence and position not given here
notes: also called N-inh-AP; not shown: alkaline phosphatase (AP)
For the molecule B1, the binding result in test [1] is “binds”; in test [2] it was “no binding”.

B2: N-Raft fused with alkaline phosphatase (peptide)
chain: SPCKILKCNSEFWAATSGSHHLGAEETPEFCTALRAYAHCTRRTAR
modifications: cysteine pairing not given here; also: alkaline phosphatase tag, sequence and position not given here
notes: also called N-Raft-AP; N-RGMa-AP; not shown: alkaline phosphatase tag of the Psectag2B-AP plasmid
B2: in test [3], the binding result is “no binding”.
